# Experimental data published in patent publication US6312907.
# Key:
# [1] = target: B. burgdorferi N40 spirochetes (low-passage, intact cells); experiment: competition: spirochetes preincubated with unlabeled competitor, then 125I-labeled Dcn
# [2] = target: Bovine decorin (Dcn) purified from fetal skin (bovine) (UniProt P21793); experiment: microtiter wells coated with increasing amounts of Dbps, biotin-labeled Dcn bound for 1 hour
# [3] = target: Bovine decorin (Dcn) purified from fetal skin (bovine) (UniProt P21793); experiment: competition: Dcn-coated wells preincubated with 200 ng protein, then B. burgdorferi N40; ELISA
Substance,percent inhibition of binding of 125I-labeled Dcn [1] [%],activity compared with DbpA:549 [2] [%],percent inhibition of attachment of B. burgdorferi N40 to Dcn [3] [%]
bovine serum albumin (BSA) (from UniProt P02769),< 10,–,–
thyroglobulin type II (Sigma),< 10,–,–
fibrinogen (KabiVitrium),< 10,–,–
DbpA:C25A (site-directed mutant of DbpA:549),–,< 80,93
DbpA:549 (recombinant polyhistidine fusion of DbpA of B. burgdorferi strain 297 lacking nine amino terminal residues),–,–,93
aggrecan isolated from bovine cartilage,< 10,–,–
fetuin type IV (Sigma),< 10,–,–
